Target: the molecule itself
Assay: semi-native western blot (SDS PAGE gel, non-boiled and non-reduced samples); input samples of ERCC1-transfected A375 cells, blotted with anti-ERCC1 antibody; with or without 25 uM cisplatin for 5 h

B1: ERCC1 (1-297), full-length wild-type human ERCC1, Myc-tagged and Flag-tagged copies (natural protein, UniProt P07992 1-297, looked up)
chain: MDPGKDKEGVPQPSGPPARKKFVIPLDEDEVPPGVAKPLFRSTQSLPTVDTSAQAAPQTYAEYAISQPLEGAGATCPTGSEPLAGETPNQALKPGAKSNSIIVSPRQRGNPVLKFVRNVPWEFGDVIPDYVLGQSTCALFLSLRYHNLHPDYIHGRLQSLGKNFALRVLLVQVDVKDPQQALKELAKMCILADCTLILAWSPEEAGRYLETYKAYEQKPADLLMEKLEQDFVSRVTECLTTVKSVNKTDSQTLLTTFGSLEQLIAASREDLALCPGLGPQKARRLFDVLHEPFLKVP
notes: ERCC1, human, full length, residues 1-297 (297 amino acid protein); Self-association was tested with two differently tagged copies; Each copy carries only one of the two tags: the Myc-tagged copy was precipitated and the Flag-tagged copy was detected; The Myc copy is in pcDNA3.1(-)/myc-His A, which as far as I recall adds a C-terminal myc-His; Construct details are in the Supplementary …
stoichiometry N: 2
